Data: IntAct's records for PubMed 17409324

B1: Vang-like protein 1 (Homo sapiens), Q8TAA9 (parent)
chain: MDTESTYSGYSYYSSHSKKSHRQGERTRERHKSPRNKDGRGSEKSVTIQPPTGEPLLGNDSTRTEEVQDDNWGETTTAITGTSEHSISQEDIARISKDMEDSVGLDCKRYLGLTVASFLGLLVFLTPIAFILLPPILWRDELEPCGTICEGLFISMAFKLLILLIGTWALFFRKRRADMPRVFVFRALLLVLIFLFVVSYWLFYGVRILDSRDRNYQGIVQYAVSLVDALLFIHYLAIVLLELRQLQPMFTLQVVRSTDGESRFYSLGHLSIQRAALVVLENYYKDFTIYNPNLLTASKFRAAKHMAGLKVYNVDGPSNNATGQSRAMIAAAARRRDSSHNELYYEEAEHERRVKKRKARLVVAVEEAFIHIQRLQAEEQQKAPGEVMDPREAAQAIFPSMARALQKYLRITRQQNYHSMESILQHLAFCITNGMTPKAFLERYLSAGPTLQYDKDRWLSTQWRLVSDEAVTNGLRDGIVFVLKCLDFSLVVNVKKIPFIILSEEFIDPKSHKFVLRLQSETSV
partner: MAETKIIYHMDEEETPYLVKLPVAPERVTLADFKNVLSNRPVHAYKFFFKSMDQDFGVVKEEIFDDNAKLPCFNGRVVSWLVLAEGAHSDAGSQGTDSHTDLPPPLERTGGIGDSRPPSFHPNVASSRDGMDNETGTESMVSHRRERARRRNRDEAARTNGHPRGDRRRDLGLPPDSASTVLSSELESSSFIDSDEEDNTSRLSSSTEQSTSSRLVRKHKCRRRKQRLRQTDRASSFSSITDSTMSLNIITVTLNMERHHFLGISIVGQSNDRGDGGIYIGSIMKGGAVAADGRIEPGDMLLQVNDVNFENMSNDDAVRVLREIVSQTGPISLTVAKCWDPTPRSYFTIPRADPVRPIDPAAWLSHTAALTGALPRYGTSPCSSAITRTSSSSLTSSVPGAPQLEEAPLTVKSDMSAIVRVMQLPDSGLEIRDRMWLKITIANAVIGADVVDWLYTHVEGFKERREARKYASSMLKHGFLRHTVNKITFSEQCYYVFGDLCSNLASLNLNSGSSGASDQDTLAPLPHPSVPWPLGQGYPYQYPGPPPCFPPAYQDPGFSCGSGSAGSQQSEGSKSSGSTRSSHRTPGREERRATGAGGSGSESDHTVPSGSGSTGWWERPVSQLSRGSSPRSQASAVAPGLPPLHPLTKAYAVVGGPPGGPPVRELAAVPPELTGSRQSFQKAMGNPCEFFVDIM
B2: Vang-like protein 1 (Homo sapiens), Q8TAA9 (parent)
chain: B1 chain
partner: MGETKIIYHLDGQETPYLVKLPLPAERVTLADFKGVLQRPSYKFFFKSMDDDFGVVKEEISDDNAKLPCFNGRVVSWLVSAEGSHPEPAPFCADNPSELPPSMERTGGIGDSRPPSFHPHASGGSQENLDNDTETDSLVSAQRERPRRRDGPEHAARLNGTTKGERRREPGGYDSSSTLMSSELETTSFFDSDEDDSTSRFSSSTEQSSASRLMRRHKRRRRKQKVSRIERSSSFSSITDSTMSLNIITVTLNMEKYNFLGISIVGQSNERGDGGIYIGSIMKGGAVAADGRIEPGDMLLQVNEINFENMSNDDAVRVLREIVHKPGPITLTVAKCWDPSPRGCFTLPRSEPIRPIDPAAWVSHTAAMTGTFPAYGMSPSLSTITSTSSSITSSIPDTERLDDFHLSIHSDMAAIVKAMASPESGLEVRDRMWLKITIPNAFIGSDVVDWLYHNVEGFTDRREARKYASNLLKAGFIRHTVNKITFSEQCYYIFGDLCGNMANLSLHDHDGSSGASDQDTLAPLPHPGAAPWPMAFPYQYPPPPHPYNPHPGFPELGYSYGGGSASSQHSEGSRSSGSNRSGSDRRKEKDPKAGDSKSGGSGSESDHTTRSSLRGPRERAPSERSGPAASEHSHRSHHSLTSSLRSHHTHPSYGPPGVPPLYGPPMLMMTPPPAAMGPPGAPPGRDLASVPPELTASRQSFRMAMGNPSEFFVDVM
B3: Vang-like protein 1 (Homo sapiens), Q8TAA9 (parent)
chain: B1 chain
partner: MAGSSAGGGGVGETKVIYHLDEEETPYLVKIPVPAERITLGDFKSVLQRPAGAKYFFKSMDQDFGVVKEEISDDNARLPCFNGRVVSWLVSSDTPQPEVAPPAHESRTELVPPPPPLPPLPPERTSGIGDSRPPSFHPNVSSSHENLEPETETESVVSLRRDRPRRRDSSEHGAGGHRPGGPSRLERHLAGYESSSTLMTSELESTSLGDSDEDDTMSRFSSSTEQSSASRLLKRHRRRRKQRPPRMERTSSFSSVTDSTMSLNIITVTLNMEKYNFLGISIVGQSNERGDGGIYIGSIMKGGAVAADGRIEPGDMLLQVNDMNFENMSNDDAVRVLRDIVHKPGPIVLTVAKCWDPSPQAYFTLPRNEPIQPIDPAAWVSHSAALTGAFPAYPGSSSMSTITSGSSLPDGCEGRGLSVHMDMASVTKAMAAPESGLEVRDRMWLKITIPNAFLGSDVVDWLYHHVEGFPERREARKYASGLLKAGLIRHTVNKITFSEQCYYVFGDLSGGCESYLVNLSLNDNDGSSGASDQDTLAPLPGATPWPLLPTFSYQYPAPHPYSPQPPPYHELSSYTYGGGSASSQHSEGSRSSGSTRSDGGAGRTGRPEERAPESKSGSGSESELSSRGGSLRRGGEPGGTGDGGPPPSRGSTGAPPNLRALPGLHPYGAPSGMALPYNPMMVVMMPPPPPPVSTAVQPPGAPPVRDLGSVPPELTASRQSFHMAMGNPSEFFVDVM

Variants of: B1
Conditions: with dvl1_mouse Dvl1, P51141

| Variant | effect of a mutation on the interaction |
| --- | --- |
| V239I | disrupting interaction strength |
| R274Q | with no effect |
| D259E | disrupting interaction strength |
| M328T | with no effect |
| S467N | disrupting interaction strength |

Variants of: B2
Conditions: with dvl3_mouse Dvl3, Q61062

| Variant | effect of a mutation on the interaction |
| --- | --- |
| M328T | with no effect |
| D259E | disrupting interaction strength |
| R274Q | with no effect |
| S467N | with no effect |
| V239I | disrupting interaction strength |

Variants of: B3
Conditions: with dvl2_mouse Dvl2, Q60838

| Variant | effect of a mutation on the interaction |
| --- | --- |
| D259E | disrupting interaction strength |
| V239I | disrupting interaction strength |
| R274Q | with no effect |
| M328T | with no effect |
| S467N | decreasing interaction strength |
